This note sets out measurements from patent publication US20240218057A1 (ROCKEFELLER UNIVERSITY, published 2024).

The EC50 is the concentration that produces a half-maximal response.

Where a chain is given by its changes, count along the chain named.

In this assay the target is T1, SARS-COV-2 RBD (SARS-COV-2, UniProt P0DTC2 319-539).
T1 construct: also called WT RBD
Kind of assay: ELISA, RBD coated.

B1: C958 (antibody, V domains shown)
VH: EVQLVQSGAEVKKPGDSLKISCKGSGYSFISHWIAWVRQKPGKGLEWMGIIHPGDSDTRYSPSIQGQVTISADRFITTAYLQWSSLQASDTAMYYCARRGSSWEIDHWGQGTLVTVSS
VL: QSVLTQPPSASGTPGQRVTISCSGSSSNIGSYTVNWYHQVPGTAPKVLIYGNTQRPSGVPDRFSGSKSGTSASLAISGLQSEDEGDYYCAAWDDSLDGWMFGGGTTLTVL
notes: IgG; V domains only
In turn, B1 had an EC50 of 4.02 ng/mL.

B2: C966 (antibody, V domains shown)
VH: EVQLVESGGGLIQPGGSLRLSCAASGFTFSSYDMHWVRQVTGKGLEWVSAIGTAGDRYYLDSVKGRFTISRENAKNSLHLQMNNLRVGDTAVYYCARASGVLTTHFDSWGRGTLVTVSS
VL: DIQMTQSPSSLSASVGDRVTITCRASQSIGRHLSWHQQKLGKAPKLLIYSASSLQSGVPSRFSGSGSGTDFTLTISSLQPEDFATYYCQQSYETPPWTFGQGTKVEIK
notes: IgG; V domains only
In turn, B2 came in with an EC50 of 1.97 ng/mL.

B3: C956 (antibody, V domains shown)
VH: EVQLVESGGGLVQPGRSLRLSCTGSEFTFGDFSMSWFRQAPGKGLEWVGFIRRKADGGTTEYAASVRGRFTISRDDSKSIAYLVMNSLKSEDTAVYYCTRAWIPTPHDYWGQGVLVTVSS
VL: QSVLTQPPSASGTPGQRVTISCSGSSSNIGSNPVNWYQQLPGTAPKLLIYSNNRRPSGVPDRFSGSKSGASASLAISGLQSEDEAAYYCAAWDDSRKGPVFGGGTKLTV
notes: IgG; V domains only
B3 had an EC50 of 1.58 ng/mL.

B4: C957 (antibody, V domains shown)
VH: B3 VH with G24A, E26G, G30A, S35T, K54E, S79G, V84L, V95M, T99S, V114T
VL: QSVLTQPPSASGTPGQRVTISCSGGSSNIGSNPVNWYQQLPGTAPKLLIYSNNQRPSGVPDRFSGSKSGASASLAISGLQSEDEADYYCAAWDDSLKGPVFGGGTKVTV
notes: IgG; V domains only
Consider B4, for which it took 1.93 ng/mL to reach a half-maximal effect (EC50).

B5: C972 (antibody, V domains shown)
VH: EVQLVESGGGLVQPGGSLRLSCAASEFIVSRNYMSWVRQAPGKGLEWVSLIYPGGSTYYPDSVKGRFTISRDNSKNTLYLQMNSLRGEDTAVYYCARDLGDSRLDYWGQGALVTVSS
VL: DIQLTQSPSFLSASVGDRVTITCRASQGISSYLAWYQQDPGKAPKLLIYAASTLQSGVPSRFSGSGSGTEFTLTISSLQPEDFATYYCQQLDSYPPGYSFGQGTKLEIK
notes: IgG; V domains only
In turn, B5 gave an EC50 of 2.18 ng/mL.

B6: C965 (antibody, V domains shown)
VH: EVQLVESGGGLVKPGRSLRLSCSASGFTFGDYAMTWFRQAPGKGLQWVGFIRSKPFGGTTQYAASVKGRFTISRDDSNNVAYLQMNSLKTEDTGVYYCTRLRQVQGVPGYYFDQWGQGALVTVSS
VL: EIVMTQSPATLSVSPGERATLSCRASQSVSSNLAWYQQKPGQAPRLLIYGASIRATGIPARFSGSGSGTEFTLTISSLQSEDFVVYYCQEYDNWFAFGGGTKVEIK
notes: IgG; V domains only
In turn, B6 returned an EC50 of 1.69 ng/mL.

B7: C969 (antibody, V domains shown)
VH: QVQLQESGPGLVKPSETLSLTCTVSGGSISSYYWSWIRQPPGKGLEWIGYIYYSGSTNYNPSLKSRVTISVDTSKNQFSLKLSSVTAADTAVYYCARLLSTEWLFNWFDPWGQGTLVTVSS
VL: not shown
notes: IgG; V domains only
B7 displayed an EC50 of 3.49 ng/mL.

B8: C959 (antibody, V domains shown)
VH: QVQLQESGPGLVKPSETLSLNCNVSGGSISNYYWSWIRQPPGKGLEWIGFISYSGSTDYNPSLKSRVIISIDTSKKHFSLNLSSVTAADTAVYFCARHYDILTALSWFDPWGQGTLVTVSS
VL: QSVLTQPPSVSAAPGQTVTISCSGSSSNIRNNFVSWYQQFPGTAPKLLIYDNNKRPSGIPDRFSGSKSGTSATLGITGLQTGDEADYYCGTWDSSPSACWVFGAGTKLTV
notes: IgG; V domains only
Turning to B8, the EC50 is 4.58 ng/mL.

B9: C953 (antibody, V domains shown)
VH: QVQLVQSGAEVKKPGSSVKVSCKASGGTFSSYAISWVRQAPGQGLEWMGRIIPILGIANYAQKFQGRVTITADKSTSTAYMELSSLRSEDTAVYYCARDSEYSSSWYSRGYYGMDVWGQGTTVTVSS
VL: not shown
notes: IgG; V domains only
Consider B9, for which the EC50 stood at 4.09 ng/mL.

B10: C955 (antibody, V domains shown)
VH: QVQLQQWGAGLLKPSETLSLTCAVYGGTFSGYSWTWIRQPPGKGLDWIGEINHSGSTNYNPSLKSRVTISVDTSKNQFSLKLSSVTAADTAVYYCARAGFGFVITSRSGTDPLFDYWGQGTLVTVSS
VL: QSVLTQPPSVSGAPGQRVTISCTGSSSNIGAGYDVHWYQQLPGTAPKVLIYGNNNRPSGVPDRFSGSKSGTSASLAITGLQAEDEADYYCQSYDTSLSGSRVFGGGTKLTVL
notes: IgG; V domains only
B10 showed an EC50 of 2.44 ng/mL.

B11: C967 (antibody, V domains shown)
VH: QVQLVESGGGVVQPGRSLRLSCAASGFTFRIYAMHWVRQAPGKGLEWVAIIWNDGSKQYYADSMKGRFTISRDNSKNTLYLQMNSLRDEDTALYYCAREGVALAGNGVDGFDIWGQGTMVTVSS
VL: DIQMTQSPSSLSASVGDRVTITCRASQTISTFLNWYRQIPGKAPKLLIYAASSLQSGVPSRFSGSGSGTDFTLTISSLQPEDFATYYCQQTYSTPYTFGRGTKLEIK
notes: IgG; V domains only
B11 had an EC50 of 3.58 ng/mL.

B12: C968 (antibody, V domains shown)
VH: QVQLVESGGGVVQPGRSLRLSCAASGFTFRIYAMHWVRQAPGKGLEWVAIIWNDGNKKDYVDSVKGRFTISRDNSRNTVYLQMNSLRVDEDTAVYYCAREGVAVGGNGVDGFDMWGQGTMVTVSS
VL: DIQMTQSPSSLSSSVGDRVTITCRASQSIGIYLNWYQQKPGKVPNLLIYAASTLQTGAPSRFSGSGSGTDFILSISSLQPEDFATYYCQQTYSVPYTFGQGTKLEIK
notes: IgG; V domains only
With B12, the half-maximal effective concentration (EC50) was 3.19 ng/mL.

B13: C971 (antibody, V domains shown)
VH: EVQLVESGGGLVKPGGSLRLSCAASGFTFNNAWMTWVRQAPGKGLEWVGRIKSKTDGGTTDYGTPAKGRFTISRDDSKNTLYLQMKSLRTEDTAVYYCTTVDVQGIWELLENDAFDIWGQGTMVTVSS
VL: EIVLTQSPGTLSLSPGERATLSCRATQAISSTYLAWYQQKPGQAPRLLIYGAFSRAPGIPDRFSGSGSETDFTLTISRLEPEDFAVYYCQQSDRSPFTFGPGTKVDIK
notes: IgG; V domains only
Molecule B13 registered an EC50 of 2.21 ng/mL.

B14: C960 (antibody, V domains shown)
VH: QVQLVESGGGVVQPGRSLTLSCTASGFTFNRFAMFWVRQAPGKGLEWVAVISFDGSYEHYAESVKGRFAIFRDNPKNTLYLQMNSLRAEDTAVYYCAKSPINYCANGVCYPDSWGQGTLVTVSS
VL: NFMLTQPHSVSESPGKTVTISCTGSSGSIANNYVQWYQQRPGSAPTTVIFEDTQRPSGVPDRFSGSIDSSSNSASLNISGLKPEDEADYYCQSFDVNSRWVFGGGTKLTVL
notes: IgG; V domains only
Molecule B14 displayed an EC50 of 1.62 ng/mL.

B15: C964 (antibody, V domains shown)
VH: EVQLVESGGGLVQPGRSLRLSCAASGFTFDDYGMHWVRQAPGKGLEWVSGISWNSGSIAYAEFVKGRFTISRDNAKNSLYLQMNSLRTEDTALYYCAKAVPTSCYVFCALDIWGQGTMVTVSS
VL: DIQMTQSPSSLSASVGDRVTITCRASQGISNYLAWYQQSPGKVPKLLIYAASTLQSGVPSRFSGSGSGTDFTLTISSLQPEDVATYYCQKYNSGPALTFGGGTKVEIK
notes: IgG; V domains only
Regarding B15, the half-maximal effective concentration (EC50) was 2.79 ng/mL.

B16: C992 (antibody, V domains shown)
VH: QVQLQESGPGLVKPSQTLSLTCTVSGGSISNGGYFWTWIRQHPVKGLEWIGYIYYSGSPHYNPSLKSRLSISLDTFKNQFSLNLSSVTAADTAVYYCARGDTFGRGYYFDFWGQGTLVTVSS
VL: SYELTQPPSVSVAPGQTARITCGGNNIGTNSMHWYQQKPGQAPVLVVFDDSDRPSGIPERFSGSNSGNTATLTISRVEAGDEADYHCQVWDRSSDRPWVFGGGTKLTVL
notes: IgG; V domains only
B16: the EC50 is 3.24 ng/mL.

B17: C962 (antibody, V domains shown)
VH: EVQLVESGGGLVQPGGSLRLSCTASRLTVSSNYMNWVRQAPGKGLEWVSVIYAGGSTFYADSVKDRFTISRDNSMNTLYLQMNSLRVEDTAVYYCARLGGYRYGMDVWGQGTTVTV
VL: DIQMTQSPSSLSASVGDRVTITCQASQDISNYLNWYQQSPGKAPKLLIYDASKLETGVPSRFSGSGSGTDFTFTISSLQPEDIATYYCLQYDNLPYSFGQGTKLEI
notes: IgG; V domains only
As for B17, it took 1.74 ng/mL to reach a half-maximal effect (EC50).

B18: C989 (antibody, V domains shown)
VH: QVQLVQSGPEVKKPGSSVKVSCKASGGNFNSYTITWVRQAPGHGLEWMGRIIPTLGVANYALNFQDRITITADKSTSTAYMDLSSLRSEDTAVYYCARETGYSGFLAVAYMDVWGNGTTVTVSS
VL: QSVLTQPPSVSGAPGQRVTISCTGSSSNVGAGYDVHWYQQLPGTAPKLLIYRNNNRPSGVPDRFSGSKSGSSASLDITGLQAEDEADYYCQSYDSSLSDSVFGGGTKLTV
notes: IgG; V domains only
On to B18, for which the EC50 amounted to 4.12 ng/mL.

B19: C963 (antibody, V domains shown)
VH: QVQLVQSGAEVKKPGSSVRVSCKASGGTFSSFTITWVRQAPGQGLEWMGRIIPNLNIPNYAQRFQGRITITAEKSTSTAYLELSSLRSEDTAVYYCARGVGYSGSGSNWYFDLWGRGTLVTVSS
VL: B18 VL with V29I, Y51S, R52G, N53H, N54I, K68T, S71T, D76A
notes: IgG; V domains only
In the case of B19, the EC50 came out at 2.96 ng/mL.

B20: C975 (antibody, V domains shown)
VH: EVQLVESGGDLTQPGGSLRLSCAASGFTFSSYDMHWVRQATGKGLEWVSGIGTSGDTYYADSVKGRFTISRENAKNSLFLQMNNLRAGDTATYYCARTEYAWGSYRSYWYFDLWGRGTLVTVSS
VL: DIQMTQSPSSLSASVGDRVTITCRTSQTISTYLNWYQQKPGKAPKVLIYAASSLQSGVPSRFSGSGSGTDFTLTISSLQPEDFATYFCQQSYSAPPWTFGPGTKVEIK
notes: IgG; V domains only
The molecule B20 had an EC50 of 2.88 ng/mL.

B21: C954 (antibody, V domains shown)
VH: QVQLVQSGAEVKKPGSSVKVSCKASGDTFTNYAFSWMRQAPGQGLEWMGRIIPILGIVKYSQKFQDRVRISADKSTSTAYMDLSSLRSEDTAMYYCARDSEFSTSWFSRGYHGMDVWGQGTTVTVSS
VL: DIVMTQSPLSLPVTPGEPASISCRSSQSLLHGDGYNYLDWYLQKPGQSPHLLIYLGSNRTSGVSDRFSGSGSGTDFTLKISRVEAEDVGVYYCMQALQTPPTFGGGTKVEIK
notes: IgG; V domains only
Molecule B21 yielded an EC50 of 1.48 ng/mL.

B22: C990 (antibody, V domains shown)
VH: EVQLVESGGGLVRPGGSLRLSCAASGFTVGSNFMSWVRQAPGKGLEWVSLIYSGGGTHYAESVKGRFTISRDKSKNTLYLQMNSLRAEDTAVYYCANQGYYYYMDVWGKGTTVTVS
VL: QSALTQPASVSGSPGQSITISCTGTSSDVGAYNYVSWHQHHPGKAPKLIIYDVSNRPSGVSNRFSGSKSGNTASLTISGLQAEDEADYYCTSYTNTTTPWVFGGGTKLTVL
notes: IgG; V domains only
B22: the EC50 was determined as 1.92 ng/mL.

B23: C987 (antibody, V domains shown)
VH: QVQLQESGPGLVKPSETLSLTCNVSGDIINKYYWSWIRQSPGKGLEWIGYIYYSGTTYYNPSLKSRVTMSVGTSKQQFSLRLTSVTAADTAVYYCARMLSTEWSFNWFDPWGPGTLVTVSS
VL: SYELTQPPSVSVSPGQAASITCSGDKLGDKFACWYQQKPGQSPVLVIYQNDKRPTGIPERFSGSNSGNTATLTISGTQAMDEADYFCQAWDSTSASVFGTGTKVTVL
notes: IgG; V domains only
B23: the EC50 was 3.11 ng/mL.
